System: O=P(O)(O)OC[C@H]1O[C@@](CO)(O[C@H]2O[C@H](CO)[C@@H](O)[C@H](O)[C@H]2O)[C@@H](O)[C@@H]1O
Assay: purified protein
Type: biochemical, Mediterraneibacter gnavus
Conditions: phosphorolysis, 100 mM sodium phosphate buffer as co-substrate, pH 6.0, 40 °C, 1.0-20 mM substrate

## RgSPP (sucrose 6^F-phosphate phosphorylase; formerly SucP) (Mediterraneibacter gnavus)
  Km: 1700 µM
  kcat: 740 s⁻¹
  kcat/Km: 435000 M⁻¹ s⁻¹

— publication PMC6521584, “Sucrose 6^F-phosphate phosphorylase: a novel insight in the human gut microbiome” (Microbial Genomics, 2019)
